Tested on: Escherichia coli TOP10
Experiment: shrunken log2 fold change of peptide-encoding DNA abundance (4.5 h post-induction vs induction); higher = less antimicrobial activity (less host growth inhibition)
Settings: time post-induction: 4.5 h; library: site-saturation at positions 5, 18, 19, 20
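Note: peptides expressed intracellularly from a pBAD plasmid library in pooled LB shake-flask culture, induced with 0.3% L-arabinose, DNA abundance read by NGS, three biological replicates, DESeq2 with apeglm shrinkage.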

RRIRPRPPRLPRPRPRPFVMPRP
shrunken log2 fold change: -0.201

RRIRRRPPRLPRPRPRPIKQPRP
shrunken log2 fold change: 0.197

RRIRSRPPRLPRPRPRPMGNPRP
shrunken log2 fold change: 0.0909

RRIRARPPRLPRPRPRPSGEPRP
shrunken log2 fold change: 0.65

RRIRIRPPRLPRPRPRPIHCPRP
shrunken log2 fold change: -0.00133

RRIRERPPRLPRPRPRPPKIPRP
shrunken log2 fold change: -0.28

RRIRIRPPRLPRPRPRPVRGPRP
shrunken log2 fold change: 0.413

RRIRRRPPRLPRPRPRPKPCPRP
shrunken log2 fold change: 0.126

RRIRIRPPRLPRPRPRPVYWPRP
shrunken log2 fold change: -0.208

RRIRHRPPRLPRPRPRPICPPRP
shrunken log2 fold change: -0.144

RRIRPRPPRLPRPRPRPKQDPRP
shrunken log2 fold change: 0.0659

RRIRVRPPRLPRPRPRPVAWPRP
shrunken log2 fold change: 0.421

RRIRYRPPRLPRPRPRPHETPRP
shrunken log2 fold change: -0.0345

RRIRIRPPRLPRPRPRPFISPRP
shrunken log2 fold change: -1.43

RRIRSRPPRLPRPRPRPWDRPRP
shrunken log2 fold change: -0.0645

RRIRTRPPRLPRPRPRPWLGPRP
shrunken log2 fold change: -0.00306

RRIRNRPPRLPRPRPRPLWIPRP
shrunken log2 fold change: -0.286

RRIRKRPPRLPRPRPRPGQDPRP
shrunken log2 fold change: 0.37

RRIRLRPPRLPRPRPRPEIVPRP
shrunken log2 fold change: 0.0118

RRIRLRPPRLPRPRPRPLLHPRP
shrunken log2 fold change: -0.0703

RRIRNRPPRLPRPRPRPADWPRP
shrunken log2 fold change: 0.044

RRIRMRPPRLPRPRPRPAFLPRP
shrunken log2 fold change: 0.175

RRIRWRPPRLPRPRPRPAMCPRP
shrunken log2 fold change: 0.0884

RRIRNRPPRLPRPRPRPQFKPRP
shrunken log2 fold change: -0.3

RRIRCRPPRLPRPRPRPTTSPRP
shrunken log2 fold change: -0.0643

RRIRSRPPRLPRPRPRPKEQPRP
shrunken log2 fold change: -0.0517

RRIRMRPPRLPRPRPRPDGQPRP
shrunken log2 fold change: 1.15

RRIRQRPPRLPRPRPRPIATPRP
shrunken log2 fold change: -0.0607

RRIRCRPPRLPRPRPRPWCPPRP
shrunken log2 fold change: -0.281

RRIRRRPPRLPRPRPRPKWYPRP
shrunken log2 fold change: 0.0824

RRIRCRPPRLPRPRPRPIISPRP
shrunken log2 fold change: -0.346

RRIRYRPPRLPRPRPRPTMGPRP
shrunken log2 fold change: 0.0568

RRIRYRPPRLPRPRPRPAGMPRP
shrunken log2 fold change: -0.0428

RRIRERPPRLPRPRPRPYNHPRP
shrunken log2 fold change: -0.272

RRIRGRPPRLPRPRPRPCVRPRP
shrunken log2 fold change: 0.079

RRIRYRPPRLPRPRPRPFYIPRP
shrunken log2 fold change: -1.26

RRIRVRPPRLPRPRPRPQEMPRP
shrunken log2 fold change: 0.0818

RRIRFRPPRLPRPRPRPKCPPRP
shrunken log2 fold change: -0.128

RRIRIRPPRLPRPRPRPMCDPRP
shrunken log2 fold change: -0.356

RRIRKRPPRLPRPRPRPMWAPRP
shrunken log2 fold change: 0.184

RRIRWRPPRLPRPRPRPYNDPRP
shrunken log2 fold change: -0.194

RRIRARPPRLPRPRPRPYPIPRP
shrunken log2 fold change: -0.249

RRIRNRPPRLPRPRPRPIFIPRP
shrunken log2 fold change: -0.44

RRIRFRPPRLPRPRPRPPTGPRP
shrunken log2 fold change: 0.217

RRIRNRPPRLPRPRPRPQLPPRP
shrunken log2 fold change: -0.352

RRIRNRPPRLPRPRPRPCIMPRP
shrunken log2 fold change: -0.135

RRIRLRPPRLPRPRPRPARDPRP
shrunken log2 fold change: 0.426

RRIRPRPPRLPRPRPRPRALPRP
shrunken log2 fold change: 0.388

RRIRIRPPRLPRPRPRPGFAPRP
shrunken log2 fold change: 0.282

RRIRPRPPRLPRPRPRPFNMPRP
shrunken log2 fold change: -0.949

RRIRFRPPRLPRPRPRPENPPRP
shrunken log2 fold change: -0.0301

RRIRYRPPRLPRPRPRPNWVPRP
shrunken log2 fold change: -0.443

RRIRPRPPRLPRPRPRPEKEPRP
shrunken log2 fold change: -0.143

RRIRARPPRLPRPRPRPAAIPRP
shrunken log2 fold change: 0.845

RRIRHRPPRLPRPRPRPGRDPRP
shrunken log2 fold change: 0.135

RRIRGRPPRLPRPRPRPFANPRP
shrunken log2 fold change: 0.0848

RRIRVRPPRLPRPRPRPGFWPRP
shrunken log2 fold change: 0.587

RRIRRRPPRLPRPRPRPNIVPRP
shrunken log2 fold change: -0.171

RRIRYRPPRLPRPRPRPNIHPRP
shrunken log2 fold change: -0.98

RRIRYRPPRLPRPRPRPGHCPRP
shrunken log2 fold change: -0.0945

RRIRKRPPRLPRPRPRPVKDPRP
shrunken log2 fold change: 0.0491

RRIRGRPPRLPRPRPRPRFVPRP
shrunken log2 fold change: 0.467

RRIRGRPPRLPRPRPRPETHPRP
shrunken log2 fold change: 2.22

RRIRQRPPRLPRPRPRPCESPRP
shrunken log2 fold change: -0.0107

RRIRARPPRLPRPRPRPEIMPRP
shrunken log2 fold change: 0.43

RRIRYRPPRLPRPRPRPHKKPRP
shrunken log2 fold change: -0.0787

RRIRHRPPRLPRPRPRPHWVPRP
shrunken log2 fold change: -0.00951

RRIRCRPPRLPRPRPRPHIVPRP
shrunken log2 fold change: -0.325

RRIRYRPPRLPRPRPRPLKTPRP
shrunken log2 fold change: 0.0308

RRIRLRPPRLPRPRPRPVYCPRP
shrunken log2 fold change: -0.303

RRIRLRPPRLPRPRPRPDPAPRP
shrunken log2 fold change: 0.752

RRIRKRPPRLPRPRPRPWTVPRP
shrunken log2 fold change: -1.8

RRIRTRPPRLPRPRPRPKDTPRP
shrunken log2 fold change: -0.076

RRIRQRPPRLPRPRPRPGLGPRP
shrunken log2 fold change: 0.492

RRIRHRPPRLPRPRPRPTGKPRP
shrunken log2 fold change: -0.00448

RRIRGRPPRLPRPRPRPESVPRP
shrunken log2 fold change: 1.42

RRIRKRPPRLPRPRPRPLFDPRP
shrunken log2 fold change: -0.0965

RRIRQRPPRLPRPRPRPPEVPRP
shrunken log2 fold change: 0.0121

RRIRARPPRLPRPRPRPALLPRP
shrunken log2 fold change: 0.718

RRIRTRPPRLPRPRPRPIAHPRP
shrunken log2 fold change: 0.00363

RRIRVRPPRLPRPRPRPVPNPRP
shrunken log2 fold change: -0.175

RRIRWRPPRLPRPRPRPTWPPRP
shrunken log2 fold change: 0.466

RRIRWRPPRLPRPRPRPHGAPRP
shrunken log2 fold change: 0.0287

RRIRSRPPRLPRPRPRPIDYPRP
shrunken log2 fold change: -0.0581

RRIRQRPPRLPRPRPRPWETPRP
shrunken log2 fold change: -0.00136

RRIRQRPPRLPRPRPRPCPWPRP
shrunken log2 fold change: 0.0978

RRIRMRPPRLPRPRPRPPIIPRP
shrunken log2 fold change: -0.306

RRIRARPPRLPRPRPRPTPMPRP
shrunken log2 fold change: 0.528

RRIRQRPPRLPRPRPRPGLDPRP
shrunken log2 fold change: 0.255

RRIRSRPPRLPRPRPRPGEMPRP
shrunken log2 fold change: 0.336

RRIRFRPPRLPRPRPRPIPKPRP
shrunken log2 fold change: 0.179

RRIRSRPPRLPRPRPRPYQKPRP
shrunken log2 fold change: -0.122

RRIRNRPPRLPRPRPRPPSYPRP
shrunken log2 fold change: -0.14

RRIRTRPPRLPRPRPRPRYMPRP
shrunken log2 fold change: -0.62

RRIRIRPPRLPRPRPRPEWDPRP
shrunken log2 fold change: 0.054

RRIRDRPPRLPRPRPRPGFPPRP
shrunken log2 fold change: 0.0346

RRIRLRPPRLPRPRPRPGCPPRP
shrunken log2 fold change: 0.0643

RRIRQRPPRLPRPRPRPRRCPRP
shrunken log2 fold change: 0.271

RRIRWRPPRLPRPRPRPFNHPRP
shrunken log2 fold change: -0.405

RRIRRRPPRLPRPRPRPTDCPRP
shrunken log2 fold change: 0.0967

RRIRKRPPRLPRPRPRPIFKPRP
shrunken log2 fold change: 0.307

RRIRSRPPRLPRPRPRPYMAPRP
shrunken log2 fold change: -0.539

RRIRQRPPRLPRPRPRPNMHPRP
shrunken log2 fold change: -0.34

RRIRPRPPRLPRPRPRPWKRPRP
shrunken log2 fold change: -0.0317

RRIRMRPPRLPRPRPRPRKFPRP
shrunken log2 fold change: 0.247

RRIRARPPRLPRPRPRPNNVPRP
shrunken log2 fold change: -0.0632

RRIRIRPPRLPRPRPRPHTWPRP
shrunken log2 fold change: -0.401

RRIRNRPPRLPRPRPRPPKIPRP
shrunken log2 fold change: 0.0999

RRIRCRPPRLPRPRPRPMDKPRP
shrunken log2 fold change: -0.131

RRIRCRPPRLPRPRPRPASNPRP
shrunken log2 fold change: -0.342

RRIRNRPPRLPRPRPRPYIDPRP
shrunken log2 fold change: 0.0433

RRIRNRPPRLPRPRPRPSGEPRP
shrunken log2 fold change: 0.155

RRIRYRPPRLPRPRPRPEKYPRP
shrunken log2 fold change: -0.00973

RRIRERPPRLPRPRPRPTWNPRP
shrunken log2 fold change: -0.167

RRIRMRPPRLPRPRPRPKVDPRP
shrunken log2 fold change: -0.0311

RRIRHRPPRLPRPRPRPECAPRP
shrunken log2 fold change: 0.249

RRIRLRPPRLPRPRPRPEENPRP
shrunken log2 fold change: -0.00256

RRIRDRPPRLPRPRPRPWTGPRP
shrunken log2 fold change: -0.118

RRIRSRPPRLPRPRPRPCSCPRP
shrunken log2 fold change: 0.000754

RRIRPRPPRLPRPRPRPHKVPRP
shrunken log2 fold change: -0.429

RRIRMRPPRLPRPRPRPMVRPRP
shrunken log2 fold change: 0.0591

RRIRLRPPRLPRPRPRPGTWPRP
shrunken log2 fold change: 0.0714

RRIRLRPPRLPRPRPRPCGTPRP
shrunken log2 fold change: -0.0819

RRIRTRPPRLPRPRPRPKHSPRP
shrunken log2 fold change: -0.416

RRIRQRPPRLPRPRPRPHGPPRP
shrunken log2 fold change: -0.102

From the supplement of paper PMC9112550, “Optimization of the antimicrobial peptide Bac7 by deep mutational scanning” (BMC Biology, 2022)
